{"source": "the nanobody polyreactivity screen of Harvey et al. (2022)", "assay": "yeast display, Sf9 membrane polyspecificity reagent, FACS + sequencing; frameworks hold sequencing errors", "outline": "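Using colony PCR, genes from sorted yeast display clones were amplified, then sequenced on MiSeq at 2 × 250 and filtered by CDR length. The clones had been stained with 10% biotinylated, detergent-solubilized Sf9 membrane reagent for 1 hour at 4 °C and sorted by FACS into low and high (top ~1%) gates on anti-HA and streptavidin fluorescence. Polyreactivity labels come from the gate of origin.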", "data": [{"sequence": "QVQLVESGGGLVQAGGSLRLSCAASGNTFYGYALGWYRPAPGKERELVASITLSGDSTHYADSVKGRFTISRDNAKNTVYVQMNSLKPEDTAVYYCAGVYTYPLGYYHYTYDYWGQGTQVTVSS", "values": [{"measurement": "polyreactivity (PSR sort gate)", "result": "low polyreactivity"}]}, {"sequence": "QVQLVESGGGLVQAGGSLRLSCAASGFTFGYNAMGWYRQAPGKERELVAVITQSGGRTYYADSVKGRFTISRDNAKNTVYLQMISLKPEDTAVYYCNKVPRVYGYVKGSDYWGQGTQVTVSS", "values": [{"measurement": "polyreactivity (PSR sort gate)", "result": "high polyreactivity"}]}, {"sequence": "QVQIVESGGGLVDAGGSLRLSCAASGRTFPPYAMGWYRQAPGKERELVAAISGSGASTYYADSVKGRFTISRDNAKNTVKLQWISQKPEDTAVYSWARYRGYWGRYYGVHYGYWGQGTQVTVSS", "values": [{"measurement": "polyreactivity (PSR sort gate)", "result": "high polyreactivity"}]}, {"sequence": "QVQLEESRGGLVQAGGSLRLSCAASGSILTGYAMGLSRQAPGKERELVAAINFSGDNTYYADSVKGRFTISRDNAKNSVYLQMNSLKPEDTAVYYCNARNAVEDDYWGQGTQVTVSS", "values": [{"measurement": "polyreactivity (PSR sort gate)", "result": "low polyreactivity"}]}, {"sequence": "QVQLVESGGGLVQAGGSLRLSCAASGSTFHSYVMGWYRQAHGKERELVAAITSRGGSTNYADSVKGRFTISRDNAKNTVYLQMNSLKPEDTAVYYCAADGYWGWSYFRYDYWGQGTLVTVSS", "values": [{"measurement": "polyreactivity (PSR sort gate)", "result": "low polyreactivity"}]}, {"sequence": "QVQLVESGGGLVQAGGSLRLSCAASGRTFGGNAMGWYRQAPGKERELVAAISSGGSTNYADSVKGRFTISRDYAKNTVYLQMNSLKPEDSAVYYCAAGWYWWARYDYWGQGTQVTVSS", "values": [{"measurement": "polyreactivity (PSR sort gate)", "result": "low polyreactivity"}]}, {"sequence": "QVQLVESGGGLVQAGGSLRLSCAASGRNFKQYAMGWYRQAHGKERELVAAISVRGGITYYADSVKGRFTISRDNAKNTVYLQMNSLKPEVTGVYYCAKRSYRTHTYDYWGQGTQVTVSS", "values": [{"measurement": "polyreactivity (PSR sort gate)", "result": "low polyreactivity"}]}, {"sequence": "QVQLVESGGGLVQAGGSLRLSCAASGSTFRNYAMGWYRQAPGKERELVAAISGSGGRTNYADSVKGRFTISRDNAKNTVYLQMNSLKPEDTAVYYCNARFPDWALSEISHSTTYGYWGQGTQVTVSS", "values": [{"measurement": "polyreactivity (PSR sort gate)", "result": "low polyreactivity"}]}, {"sequence": "QVQLVESGGGLVQAGGSLRLSCAASGLIFSWYDMGWYRQAPGKERELVAAITTDGDDTYYADSVKGRFTISRDNAKNTVYLQMNSLKPEDTAVYYCAADSELAIRYPDRDYDSWGQGTQVTVSS", "values": [{"measurement": "polyreactivity (PSR sort gate)", "result": "low polyreactivity"}]}, {"sequence": "QVQLVESGGGLVQAGGSLRLSCAASGFTFSSYTMGWYRQAPGKERELVAAISRRTGRTYYADSVKGRFTISRDNAKNTVYLQMNSLKPEDTEVYYCAARPYWSYRRYDYWGQGTQVTVSS", "values": [{"measurement": "polyreactivity (PSR sort gate)", "result": "high polyreactivity"}]}, {"sequence": "QVQLVESGGGLVQAGGSLRLSCAASGSTFTDNTMGWYRQAPGKERELVAAISGVGSTYYADSVKGRFTISRDNAKNTVYLQLNSLKPEVSAVYYCAKPYYDGRTHFVSWGQGTQVTVSS", "values": [{"measurement": "polyreactivity (PSR sort gate)", "result": "low polyreactivity"}]}, {"sequence": "QVQLVESVGGLVQAGGSLLLSCAASGRTFTKYAMGWYRLAPGKEGELVAAISRSGTSTYYADSVKGRFTISRDNEKNTVYLQMNSLKPEDTAVYYCATVSAKYHSVHFGYWGQGTQVTVSS", "values": [{"measurement": "polyreactivity (PSR sort gate)", "result": "high polyreactivity"}]}, {"sequence": "QVQLVESGGGLVQAGGSLRLICAASGRISKRYTMGWYRQAPGKERELVAAINSSTSKSYADSVKGRFTISRDNAKNTVYLQMNSLKPEDTAVYYCNARYNYSYDYNYWGQGTQVTVSS", "values": [{"measurement": "polyreactivity (PSR sort gate)", "result": "low polyreactivity"}]}, {"sequence": "QVQLVESGGGLVQAGGSLRLSSAASGSILYFNAMGWYRQAPGKERELVAAISRSGGSTYYADSVKGRFTISRDNAKNTVYLQMNSLKPEDTAVYYCAAVYIRCRGNRFDYWGQGTQVTVSS", "values": [{"measurement": "polyreactivity (PSR sort gate)", "result": "high polyreactivity"}]}, {"sequence": "QVQLVESGGGLVQAGGSLRLSCAASGRIFGKYAMGWYRQAPGKERELVAAIRITGGSTYYADSVKGRFTISRDNAKNTVYLEMNSLKPEDTAVYYCAAVYLKTYYWGQGTQVTVSS", "values": [{"measurement": "polyreactivity (PSR sort gate)", "result": "high polyreactivity"}]}, {"sequence": "QVHLVESGGGLVQAGGSLRLSCAASGRIFGPYTMGWYIQAPGKEREFVAAITRRGGSTYYADSVKGRFTISRDNAKNTVYLQMNSLKPEDTAVYSCAAGGQKRSLGYSWGQGTQVTVSS", "values": [{"measurement": "polyreactivity (PSR sort gate)", "result": "low polyreactivity"}]}, {"sequence": "QVQLVESGGRLVQAGGSLRLSCAASGFIFVDYAMGWYRQAPGKERELVAAITYDGGSTYYADSVKGRFTISRDNAKNTVYLPMNSLKPEDTAVYYCATQGLWIFVVVEMDYWGQGTQVTVSS", "values": [{"measurement": "polyreactivity (PSR sort gate)", "result": "low polyreactivity"}]}]}
